Results on 41 sequences are retold here after the nanobody polyreactivity screen of Harvey et al. (2022).

A short description of this data set: yeast display, Sf9 membrane polyspecificity reagent, FACS + sequencing; frameworks hold sequencing errors. The essentials: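 A synthetic nanobody library was expressed on Saccharomyces cerevisiae BJ5465 by galactose induction for 36–48 hours. The library was stained for 1 hour at 4 °C with 10% biotinylated, detergent-solubilized Sf9 membrane reagent and enriched with streptavidin microbeads before FACS. Low and high (top ~1%) gates were set on anti-HA fluorescence for expression and streptavidin fluorescence for reagent binding, and each polyreactivity label reflects the gate of origin.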
Regarding “QVQLEESGGGLVQAGGSLRLSCAASGRIFQRNAMGWYRQAPGKEREFVAAITKSGGGTYADSVKGRFTISRDNAKNTVYLQMNSLKAEDTAVYYCNVVPVWRPYSLINWQKDFGYWGQGTQVTVSS”, the “polyreactivity (PSR sort gate)” value was “high polyreactivity”. Consider “QVQLEESGGGLVQAGGSLRLSCAASGRIFRGNAIAWYRQAPGKERELVASITRGNNTYYADSVKGRFTISRDNAKNTVYLQMNSLKPEDTAVYYCAKRYIYRYYWGQGTQVTVSS”, for which the “polyreactivity (PSR sort gate)” value was “high polyreactivity”. “QVQLEESGGGLVQAGGSLRLSCAASGRIFRYTLGWYRQAPGKERELVATINSGGRTYDADSVKGRFTISRDNAKNTVYLQMNSLKPEDTAVYYCAATYQTKSNKYVHGSPIENDYWGQGTQVTGSS”: the “polyreactivity (PSR sort gate)” value is recorded as “low polyreactivity”. Consider “QVQLEESGGGLVQAGGSLRLSCAASGRIFVTNAMGWSRQAPGKERELVADITSGGSTNYADSVKGRFTISRDNAKNTVYLQMNSLKPEDTAVYYCAARFTPYITSDDGHYDYWGQGTQVTVSS”, for which the “polyreactivity (PSR sort gate)” value is “low polyreactivity”. The result for “QVQLEESGGGLVQAGGSLRLSCAASGRIFWANAMGWSRQAPGKERELVAAINRRTGITYYADSVKGRFTISRDNAKNTVYLQMNSLKPEDTAVYYCNAGSSPIRQYYGQVWKKGGYWGQGTQVTVSS” reads “high polyreactivity”; that for “QVQLEESGGGLVQAGGSLRLSCAASGRIFYDYAMGWYRKAPGKERELVATISWSAGIKYYADSVKGRFTISRDNAKNTVYLQMNSLKPEDTAVYYCAKVGRYTYSGQYDYWGQGTQVTVSS”, “high polyreactivity”; that for “QVQLEESGGGLVQAGGSLRLSCAASGRIFYLNAMGWYRQAHGKERDLVAAITRSAASTHYADSVKGRFTISRDNAKNTVYLQLNSLKPEDTAVYYCAARFWYDYRHYDYWGQGTQVSVSS”, “low polyreactivity”.

Turning to “QVQLEESGGGLVQAGGSLRLSCAASGRIIRINPMGLYRQAPGKERELVAAITRGGTTYADSVKGRFTFSRDNAKNTVYLQMNSLKPEDTAVYYCNARTGRSPTGFLYWGQGTQVTVSS”, the “polyreactivity (PSR sort gate)” value was “high polyreactivity”. The result for “QVQLEESGGGLVQAGGSLRLSCAASGRIYRYYDMGWYRQAPGKEREFVAAITRSGAITYYADSLKGRFTISRDNAKNTVYLQMNSLKPEDTAVYYCAAVDDDYSIVWYDYWGQVTQVTVSS” reads “low polyreactivity”; that for “QVQLEESGGGLVQAGGSLRLSCAASGRSFRKYAMGWYRQAPGKERELVARISWSAGSTYYADSVKGRFKISRDIAMYTVYLQMNSLKPVDTAFYFCIDDGYYRYGNRVLRPGYYCGQGTQVTVSS”, “high polyreactivity”; that for “QVQLEESGGGLVQAGGSLRLSCAASGRTFLEYVMGWYRQAPGKERELVAVISWSTGSTYADSVKGRFTISRDNAKNTVYLQMNSLKPEDTAVYYCARRVQSLGNVVIYNYWGQGTQVTVSS”, “low polyreactivity”. For “QVQLEESGGGLVQAGGSLRLSCAASGRTFRINAMGLYRQAPGKERELVAAIRSRAGSTYYADSVKGRFTISRDNAKNTVYLQMNSLKPEDTAVYYCAAKLPFDVDYWGQGTQVTVSS” the value was “high polyreactivity”. As for “QVQLEESGGGLVQAGGSLRLSCAASGRTFSPNTMGWYRQAPGKEREFVAAITASGDSTYYADSVKGRFTISRDNAKYSVYLQMNRLKPEDTAVYYCATDSNWYWGFNYWGQGTQVTVSS”, the “polyreactivity (PSR sort gate)” value is given as “low polyreactivity”. “QVQLEESGGGLVQAGGSLRLSCAASGRTFSRNAMGWYRQAPGKERELVAAITKGGGSTYYADSVKGRFTISRDNAKNTVYLQMNSLKPEDTAVYYCAARKRPPYGYGYWGQGTQVTVSS”: the “polyreactivity (PSR sort gate)” value is “high polyreactivity”. With “QVQLEESGGGLVQAGGSLRLSCAASGRTFTPNAMGSSRQAPGKERELVASIRRGTSTYYADSVKGRFTISRDNAKITVYLQMNSLKPEDTAVYYCAARPFVPRVGTYSYYWGQGTQVTVSS”, the “polyreactivity (PSR sort gate)” value is on record as “high polyreactivity”. As for “QVQLEESGGGLVQAGGSLRLSCAASGRTFTSNPMGLYRKAPGKERELVAAISNSGSSTYYADSVKGRFTISRDNAKNTVYLQMNSLKAEDTAVYYCAAYHYRQNTLYYYWGQGTQVTVSS”, the “polyreactivity (PSR sort gate)” value is reported as “high polyreactivity”.

Take “QVQLEESGGGLVQAGGSLRLSCAASGRTFTVYAMGWYRQAPGKERELVAGIRRGDSTYYADSVKGRFTISRDNAKNTVYLQMNSLKPEDTAVYYCAARPAGYGHYKYYYWGQGTQVTVSS”: the “polyreactivity (PSR sort gate)” value was “high polyreactivity”.

“QVQLEESGGGLVQAGGSLRLSCAASGRTFVYNAMGWYRQAPGKERELVAAITSGGRTYYADSVKGRFTISRDNAKNTVYLQMNSLKPEDTAVYYCAADHRGEYDYWGQGTQVTVSS”: the “polyreactivity (PSR sort gate)” value is “low polyreactivity”. Consider “QVQLEESGGGLVQAGGSLRLSCAASGRTLGGYAMGWYRQAPGKERELVASITARGGSTYYADSVKGRFTISRDNAKNTVYLQMNSLKPEDTAVYYCAARSGYYRGGFYYWGQGTQVTVSS”, for which the “polyreactivity (PSR sort gate)” value was “high polyreactivity”.

Take “QVQLEESGGGLVQAGGSLRLSCAASGRTLQRNAMGWYRQAPGKERELVAAISWSGASTYYADSVKGRFTISRDNAKNTVYLQMTSLKPEDTAVYYCAATYIDRGNIYDYWGQGTQVTVSS”: the “polyreactivity (PSR sort gate)” value is given as “high polyreactivity”. Regarding “QVQLEESGGGLVQAGGSLRLSCAASGRTSLAYAKGWYRQAPGKERELVAGITSGGNTNYADSVKGRFTISRDNAKNTVYLQMNSLKPEDTAVYSCNKKKRWQWYSESVLVYLGFYSWGQGTQVTVSS”, the “polyreactivity (PSR sort gate)” value is “low polyreactivity”.

Consider “QVQLEESGGGLVQAGGSLRLSCAASGSIFDVIAMGWYSQAPGNVRVLVAAISDSGGSTYYADSVKGRFTNSRDNAKKTVYLQMNSLKPEDTAVYYCNADWSWYNYYDFDYWGLGTQVTVSS”, for which the “polyreactivity (PSR sort gate)” value was “low polyreactivity”. Turning to “QVQLEESGGGLVQAGGSLRLSCAASGSIFFFYAMGWYRQAPGKERELVAAISSDGSTKYADSVKGRFTISRDNAKNTVYLQMNILKPEDTAVYYCNADKWSVVGYVLGFYRDDYWGQGTQVTVSS”, the “polyreactivity (PSR sort gate)” value was “low polyreactivity”. For “QVQLEESGGGLVQAGGSLRLSCAASGSIFKGYAMGWYRQAPGKESELVAAISGGGGSTYYADSVKGRFTISRDNAKNTVYLQMNSLKPEDTAVYYCNRDDSWSPSGAYDYWGQGTQVNVSS”, the “polyreactivity (PSR sort gate)” value is reported as “low polyreactivity”. On to “QVQLEESGGGLVQAGGSLRLSCAASGSIFRNNSMGWYRKAPGKERVLVAVISRRSGNTYYADSVKGRLTISRDNAKNTVYLQMNSLKAEDTAVYYCAADYSKSSIRGEYWGQGTQVTVSS”, for which the “polyreactivity (PSR sort gate)” value is “low polyreactivity”.

With “QVQLEESGGGLVQAGGSLRLSCAASGSIFRNYAIGWYRQAPGKEREFVAANTYSGGSTHYADSVKGRFTISRDNAKNTVYLQMNSLKPEDTAVYYCAADYYWRVHYGYWGQGTQVTVSS”, the “polyreactivity (PSR sort gate)” value is “high polyreactivity”. For “QVQLEESGGGLVQAGGSLRLSCAASGSIFVHNDMGWYRQAPGKERELVATIDSAGGTYYADSVKGRFTISRDNAKNTVYLQMNSLKPEDTAVYYCAAYGPYVLSIYDYWGQGTQVTVSS”, the “polyreactivity (PSR sort gate)” value was “low polyreactivity”. As to “QVQLEESGGGLVQAGGSLRLSCAASGSIFVRNAMGWYRQAPGKERELVASISRRGGSTYYADSVKGRFTISRDNAKNTVYLQMISLKPEDTAVYYCAARNQIVPYGTYNYWGQGTQVTVSS”, the “polyreactivity (PSR sort gate)” value is “high polyreactivity”.

On to “QVQLEESGGGLVQAGGSLRLSCAASGSIFVVYAMGWSRQAPGKERELVASIRTGGSTNYADSEKGRFTISRDNAKNNVYLQMNSLKPEDTAVYYCAAASWNSNRHYYVARYYYWGQGTQVTVSS”, for which the “polyreactivity (PSR sort gate)” value is on record as “high polyreactivity”.

As for “QVQLEESGGGLVQAGGSLRLSCAASGSIFVYYARGWYRQAPGKERELVATISRRGGSTYYADSVKGRFTISRDNAKNTVYLQMTSLKPEDTAVDYCNAAPSPVGSARSSLTRYTGMDYWGQGTQVSVSS”, the “polyreactivity (PSR sort gate)” value was “high polyreactivity”. Regarding “QVQLEESGGGLVQAGGSLRLSCAASGSIFYSNAMGWYRQAPGKERELVATIRSGGTTYYADSVKGRFTISRDNAKNTVYLQMNSLKPEDTAVYYCAKRYGVKYWGQGTQVTVES”, the “polyreactivity (PSR sort gate)” value is “high polyreactivity”. The result for “QVQLEESGGGLVQAGGSLRLSCAASGSIIYAYAMGWSRQAPGKERELVDGIRDGGSTYYADSVKWRFTISRDNAKNTVYLQMNSLKPADTAVYYCAAGPRIRDDYWGQGTQVTVSS” reads “low polyreactivity”; that for “QVQLEESGGGLVQAGGSLRLSCAASGSILVAYAMGWYRQAPGKERELVAAISSVGNTYYADSVKGRFTISRDNAKNTVYLQMNSLKPEDTAVYYCNAVYRVWYAEWSTVGSPHDYWGQGTQVTVSS”, “low polyreactivity”; that for “QVQLEESGGGLVQAGGSLRLSCAASGSILYVYAMGWSRQAPGKERELVAAMTRSGDTTSYADSVKGRFTISRDFAKNTVYLQLNSLKPEDTAVYYCDAAERRYGRGYGYWGQCTQVTVSS”, “high polyreactivity”. “QVQLEESGGGLVQAGGSLRLSCAASGSNFSRYAMGWYRQAPGKERELVAAISWAGNTYYADSVKGRFTISRDNAKNTVYLQMNSLKPEDTAVYYCNADRVRYLFTRYDYWGQGTQVTVSS”: the “polyreactivity (PSR sort gate)” value is listed as “high polyreactivity”.

As for “QVQLEESGGGLVQAGGSLRLSCAASGSTFHTYAMGWYRQAPGKERELVASISYGVTTYYADSVKGRFTISRDNAKNTVYLQMNSLTPEDTAVYYCAREGYNWVYLSYGYWGQGTQVTVSS”, the “polyreactivity (PSR sort gate)” value is reported as “low polyreactivity”. As for “QVQLEESGGGLVQAGGSLRLSCAASGSTFINNAMGWYRQPPGKERELVAAISSGGSTYYADSVKGRFTISRDNAKNTVYLEMNSLKPEDTAVYYCAAEFVETKYPEMDYWGQGTQVTVSS”, the “polyreactivity (PSR sort gate)” value is on record as “low polyreactivity”.

For “QVQLEESGGGLVQAGGSLRLSCAASGSTFLQYPMGWYRQATGKQRELVAAISWRAGSTYYADSVKGRFTISRDTAKNTVYLQMNTLKPEDTAVNYCDADGNRWRYELDDYDYWGQGTQVTGSS”, the “polyreactivity (PSR sort gate)” value is “low polyreactivity”. Regarding “QVQLEESGGGLVQAGGSLRLSCAASGSTFPFYAMGWYRQAPGKERELVAAISRGGSTNYADSVKGRFTISRDNAKNTVYLQMNSLKPEDTAVYYCNADVFWWYPYDYWGQGTQVTVSS”, the “polyreactivity (PSR sort gate)” value is “high polyreactivity”.

In the case of “QVQLEESGGGLVQAGGSLRLSCAASGSTFRLYAMGWYRQAPGKERELVATITNGGNTYYADSVKGRFTISRDNAKNTVYLQMNSLKPEDTAVYYCAKRLSRRYDYWGQGTQGTVSS”, the “polyreactivity (PSR sort gate)” value is given as “low polyreactivity”.

On to “QVQLEESGGGLVQAGGSLRLSCAASGSTFSGYAMGWYIPAPGKERELVATIRRGGSTYADSVKGRFTISRDNAKNTVYLQMNSLKPEDTAVYYCAADAYVSSQPMDYWGQGTQVTVSS”, for which the “polyreactivity (PSR sort gate)” value is reported as “high polyreactivity”.
